Data on 4 substances can be found in publication PMC3750474.

Test [1] deals with HIV-1 capsid CAN (Human immunodeficiency virus 1) (UniProt O93182). Particulars: cited from earlier work.
Test [2] addresses HIV-1 M-group (NL4-3) N-terminal capsid domain (HIV-1 M-group (NL4-3)).
Test [3] shares this target. As to the kind of experiment: ITC; MicroCal ITC200, 15°C, 50 mM potassium phosphate pH 7.4, 100 mM NaCl, 1 mM DTT; NUP358Cyp (typical 2.5 mM) in the syringe, capsid domain (typical 0.2 mM) in the cell; one set of binding sites model. (In general: In ITC the heat of successive injections is recorded.)
The target in test [4] is HIV-1 M-group (NL4-3) N-terminal capsid domain. As to the kind of experiment: ITC.

Usually Kd stands for the equilibrium constant for the complex coming apart. In the case of NUP358 Cyp (from UniProt P49792), in test [1], the Kd was 200 µM.
In the case of “cyclophilin domain from human NUP358 (from UniProt P49792 3057-3224) (domain or fragment)”, the rate of cis-trans isomerization of the capsid G89-P90 bond catalysed by NUP358Cyp (NMR ZZ-exchange; 430 μM CA^N, 35 μM NUP358Cyp, 298 K) in test [2] is 12.1 s⁻¹. The substance also gave a Kd in test [3] of 94 µM.
In test [4], “cyclophilin domain from human NUP358 (from UniProt P49792) V61M; V113F” showed an other: N (stoichiometry) of 1.43, an other: ΔH of -7.45 kcal/mol and an other: ΔS ((cal/mol)/deg) of -5.26.
“cyclophilin domain from human NUP358 (from UniProt P49792) V113F”: in test [4], the other: N (stoichiometry) was 0.74, the other: ΔH was -10.8 kcal/mol and the other: ΔS ((cal/mol)/deg) was -16.5.
